Assay results published in the supplement of paper PMC12783771.
± gives the standard deviation of the averaged measurements.

B1: library; numbered along this chain (parent)
chain: MNIQIGELAKRTACPVVTIRFYEQEGLLPPPGRSRGNFRLYGEEHVERLQFIRHCRSLDMPLSDVRTLLSYRKRPDQDCGEVNMLLDEHIRQVESRIGALLELKHHLVELREACSGARPAQSCGILQGLSDCVCDTRGTTAHPSD

What was measured:
[1] = variants of: B1; assay: sfGFP reporter fluorescence (15 h) (µM FITC); higher = higher leak; conditions: library round: Round 0; ligand: none
How it was run: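 PCR-made linear PbrR templates (Echo-normalized to 5 nM) were expressed in BL21 Star (DE3) extract (PANOx-SP) with pPbrR-sfGFP reporter plasmid and 30 μg/mL GamS. Reactions were 1 μL, Echo-assembled, with 1 µM lead chloride, 30 µM zinc acetate or no metal, incubated 15 hr at 30 °C. Endpoint sfGFP fluorescence (485/528 nm, Synergy Neo2) was converted to µM FITC via standard curves in 50 mM sodium borate pH 8.5. Up to three biological replicates.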

[2] = variants of: B1; assay: sfGFP reporter fluorescence (15 h) (µM FITC); higher = stronger transcriptional activation; conditions: library round: Round 0
Procedure: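 Cell-free (BL21 Star DE3 extract, PANOx-SP) biosensing: 1 µL Echo-assembled reactions with linear PbrR variant templates (5 nM) and pPbrR-sfGFP reporter, with 1 µM Pb (lead chloride), 30 µM Zn (zinc acetate) or no ligand; endpoint sfGFP fluorescence after 15 h at 30 °C, calibrated as µM FITC. Round 0 library (alanine scan, site saturation, combinatorial) of PbrR from Cupriavidus metallidurans; 2 biological replicates.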

| Variant | sfGFP reporter fluorescence [1] | sfGFP reporter fluorescence ([2]; ligand: 1 µM Pb) | sfGFP reporter fluorescence ([2]; ligand: 30 µM Zn) |
| --- | --- | --- | --- |
| MNIQIGELAKRTACPTVTIRFYEQEGLLPPPGRSRGNFRLYGEEHVERLQFIRHCRSLDMPLSDVRTLLSYRKRPDQDCGEVNMLLDEHIRQVESRIGALLELKHHLVELREACSGARPAQSCGILQGLSDCVCDTRGTTAHPSD [V16T] | 0.0641 ± 0.0031 | 0.0982 ± 0.0021 | 1.14 ± 0.09 |
| MNIQIGELAKRTACPWVTIRFYEQEGLLPPPGRSRGNFRLYGEEHVERLQFIRHCRSLDMPLSDVRTLLSYRKRPDQDCGEVNMLLDEHIRQVESRIGALLELKHHLVELREACSGARPAQSCGILQGLSDCVCDTRGTTAHPSD [V16W] | 0.0599 ± 0.0018 | 0.0623 ± 0.0021 | 0.064 ± 0.00078 |
| MNIQIGELAKRTACPYVTIRFYEQEGLLPPPGRSRGNFRLYGEEHVERLQFIRHCRSLDMPLSDVRTLLSYRKRPDQDCGEVNMLLDEHIRQVESRIGALLELKHHLVELREACSGARPAQSCGILQGLSDCVCDTRGTTAHPSD [V16Y] | 0.0629 ± 0.00078 | 0.0678 ± 0.001 | 0.119 ± 0.0018 |
| MNIQIGELAKRTACPVATIRFYEQEGLLPPPGRSRGNFRLYGEEHVERLQFIRHCRSLDMPLSDVRTLLSYRKRPDQDCGEVNMLLDEHIRQVESRIGALLELKHHLVELREACSGARPAQSCGILQGLSDCVCDTRGTTAHPSD [V17A] | 0.0568 ± 0.001 | 0.0566 ± 0.0013 | 0.622 ± 0.11 |
| MNIQIGELAKRTACPVVAIRFYEQEGLLPPPGRSRGNFRLYGEEHVERLQFIRHCRSLDMPLSDVRTLLSYRKRPDQDCGEVNMLLDEHIRQVESRIGALLELKHHLVELREACSGARPAQSCGILQGLSDCVCDTRGTTAHPSD [T18A] | 0.0612 ± 0.001 | 0.0612 ± 0.0026 | 0.188 ± 0.014 |
| MNIQIGELAKRTACPVVTARFYEQEGLLPPPGRSRGNFRLYGEEHVERLQFIRHCRSLDMPLSDVRTLLSYRKRPDQDCGEVNMLLDEHIRQVESRIGALLELKHHLVELREACSGARPAQSCGILQGLSDCVCDTRGTTAHPSD [I19A] | 0.0577 ± 0.0013 | 0.0592 ± 0.00078 | 0.08063 ± 0.00052 |
| MNIQIGELAKRTACPVVTIAFYEQEGLLPPPGRSRGNFRLYGEEHVERLQFIRHCRSLDMPLSDVRTLLSYRKRPDQDCGEVNMLLDEHIRQVESRIGALLELKHHLVELREACSGARPAQSCGILQGLSDCVCDTRGTTAHPSD [R20A] | 0.05772 ± 0.00026 | 0.0548 ± 0.0018 | 0.0572 ± 0.001 |
